Laboratory results as given in US20250325667A1 (published 2025).

B1: TCR074 (TCR, V domains shown)
Valpha: AQKITQTQPGMFVQEKEAVTLDCTYDTSDPSYGLFWYKQPSSGEMIFLIYQGSYDQQNATEGRYSLNFQKARKSANLVISASQLGDSAMYFCAMRIDAGGTSYGKLTFGQGTILTVHP
Vbeta: DAMVIQNPRYQVTQFGKPVTLSCSQTLNHNVMYWYQQKSSQAPKLLFHYYDKDFNNEADTPDNFQSRRPNTSFCFLDIRSPGLGDAAMYLCATSRDRVNTGELFFGEGSRLTVL
B2: TCR095 (TCR, V domains shown)
Valpha: GIQVEQSPPDLILQEGANSTLRCNFSDSVNNLQWFHQNPWGQLINLFYIPSGTKQNGRLSATTVATERYSLLYISSSQTTDSGVYFCAVEGDNAGGTSYGKLTFGQGTILTVHP
Vbeta: EAQVTQNPRYLITVTGKKLTVTCSQNMNHEYMSWYRQDPGLGLRQIYYSMNVEVTDKGDVPEGYKVSRKEKRNFPLILESPSPNQTSLYFCASSWSTSYGYTFGSGTRLTIV
B3: TCR123 (TCR, V domains shown)
Valpha: SQKIEQNSEALNIQEGKTATLTCNYTNYSPAYLQWYRQDPGRGPVFLLLIRENEKEKRKERLKVTFDTTLKQSLFHITASQPADSATYLCALAGYQKVTFGTGTKLQVIP
Vbeta: SQTIHQWPATLVQPVGSPLSLECTVEGTSNPNLYWYRQAAGRGLQLLFYSVGIGQISSEVPQNLSASRPQDRQFILSSKKLLLSDSGFYLCAWSLRTSGSEQFFGPGTRLTVL

Molecular target: T1, HPV E7 peptide on HLA-A*11:01 (human)
T1 peptide: IVCPICSQK
Assay: multimer staining

Binding result, recognises:
B1
B2
B3
